# Key:
# [1] = type: physicochemical
# Experimental: Stabilities of TLPs were determined at different temperatures. Shown are the first-order inactivation curves for TLP-ste incubated at 80° C. (Δ) and 90° C. (+), thermolysin at 90° C. (Δ), and the 8-fold mutant at 100° C. (●), respectively. […] Samples, taken at the various time points, were quickly cooled on ice (15 s) and transferred to 50° C. to prevent cold denaturation. Residual activity was determined using casein (0.8%) as a substrate in 50 mM TrisHCl (pH 7.5), 5 mM CaCl2 as described previously (Eijsink, V. G. H., Veltman, O. R., Aukema, W., Vriend, G. & Venema, G. Nature Struct. Biol. 2, 374-379 (1995)).
# casein = test: Optimum temperature for activity with casein; type: biochemical
# Experimental: Specific activities for TLP-ste and the 8-fold mutant were determined using casein (0.8%) as a substrate in 50 mM Tris-HCl (pH 7.5), 5 mM CaCl2 at 37° C. […] (pH 7.0), 5 mM CaCl2, 5% or 1% DMSO, 0.5% isopropanol, 0.01% Triton X-100, 50 mM NaCl, with […] of substrate, by measuring the decrease in absorption at 345 nm (Î345=−317 M^−1·cm^−1). Stock solutions of the furylacryloylated dipeptides, (Sigma, St. Louis, […].) were prepared by dissolving 3-(-2-furylacryloyl)-L-glycyl-L-leucine amide (FaGLa) and 3-(-2-furylacryloyl)-L-alanyl-L-phenylalanine amide (FaAFa) in DMSO. The kcat/Km ratios of the enzymes were determined by varying the enzyme concentrations (over a 50 fold range) under pseudo-first order conditions by measuring the initial activity, essentially according to the method described by Feder^30. The Ki for phosphoramidon (N-[a-L-rhamnopyrano-syl-oxyhydroxyphophinyl]-L-leucyl-L-tryptophan) was determined by a 30 minute preincubation of a 100 pM protease solution with varying concentrations of the inhibitor (10^−8 to 10^−3 M), in 50 mM MOPS (pH 7.0), 5 mM CaCl2, 50 mM NaCl, prior to the addition of the furylacryloated substrate. For determination of the Ki FaAFa was used as the substrate. Since the Km of the substrate for the enzyme is higher than the concentration used, IC50 values were taken to be equal to Ki values. The optimum temperature for activity was determined by incubating proteases with casein (0.8%) in 50 mM Tris-HCl (pH 7.5), 5 mM CaCl2, at different temperatures for 30 minutes, after which the amount of released peptides, indicative for activity, was measured^11.
# [2] = tested on: yeast protein preparation; test: Hydrolysis of 10% (w/v) yeast proteins compared with commercial enzyme preparations; type: biochemical; settings: yeast proteins 10% w/v
# Text: In industrial applications enzymes are used for the hydrolysis of protein preparations derived from different sources. Here we show the results of a comparative study in which the rate and quality of hydrolysis of casein and yeast protein preparations by the 8-fold mutated TLP-ste variant was compared with that obtained by the hydrolysis using 3 different enzyme preparations that are used for these purposes in industry. The hydrolysis conditions were chosen such that they were optimal for each of the enzyme preparation under study. The hydrolysis products were separated in an acid-soluble and a not acid-soluble fraction. The amount of acid-soluble protein material formed upon hydrolysis was determined by means of measuring the absorbance at 275 nm, whereas the composition of the acid-insoluble hydrolysis products was studied using SDS-PAGE.
# Substrate (10% w/v of casein or yeast protein preparation) was incubated in 50 mM Tris-MES, 5 mM CaCl2, pH 6.5 at 50° C. (Enzyme I, Favourzyme™ 1000L); 50 mM Tris-MES, 5 mM CaCl2, pH 6.0 at 60° C. (Enzyme II, BioProtease N100L); 50 mM Tris-MES, 5 mM CaCl2, pH 8.0 at 60° C. […] The amount of acid-soluble protein released by hydrolysis was determined by measuring the absorbance of the samples at 275 nm. The acid precipitated proteins were redisolved in 6 M urea and subsequently analysed by SDS-PAGE (15% running gel).
# [3] = tested on: α-amylase from Bacillus licheniformis; test: Hydrolysis of protease resistant α-amylase (SDS-PAGE); type: biochemical; settings: 60 minutes
# Experimental: As an example of the enzymatic activity of the 8-fold mutant we tested the hydrolysis of protease resistant α-amylase from Bacillus licheniformis by the 8-fold mutant. B. licheniformis α-amylase (1 mg/ml) in 50 mM MOPS, pH 7.0, 5 mM CaCl2, 0.01% Triton X-100 was incubated with purified TLP-ste (1 μg/ml), the 8-fold mutant or without protease for 60 minutes at the temperature indicated. The reaction volume was 500 μL. […] Precipitates (only observed in the 100° C. samples) were collected by centrifugation and redissolved in 500 μL 6 M Urea. Both supernatants and redissolved precipitates were subjected to standard SDS-PAGE, including pre-treatment with sample loading buffer (5 minutes at 100° C.). The samples were identical in size (20 μL supernatant and 20 μL dissolved precipitate). Gels were stained with Coomassie-brilliant blue.
molecule,measurement,setting,value
"8-fold mutant: TLP-ste with A4T, T56A, G58A, T63F, S65P, A69P and a disulfide bridge G8C-N60C (protein) VAGTSTVCVGRGVLGDQKYINTTYSSYYGYYYLQDNTRGSGIFTYDGRNRTVLPGSLWADADCQFFAPYDAPAVDAHYYAGVVYDYYKNVHGRLSYDGSNAAIRSTVHYGRGYNNAFWNGSQMVYGDGDGQTFLPFSGGIDVVGHELTHAVTDYTAGLVYQNESGAINEAMSDIFGTLVEFYANRNPDWEIGEDIYTPGVAGDALRSMSDPAKYGDPDHYSKRYTGTQDNGGVHTNSGIINKAAYLLSQGGVHYGVSVNGIGRDKMGKIFYRALVYYLTPTSNFSQLRAACVQAAADLYGSTSQEVNSVKQAFNAVGVY",half life at 100° C.,[1],~3 h
same,half-life at 100° C. relative to the wild-type,[1],more than 1000 times
same,half-life 80° C.,"[1]; buffer, pH 5.3",stable
same,half-life 90° C.,"[1]; buffer, pH 5.3",stable
same,half-life 100° C.,"[1]; buffer, pH 5.3",2.83 h
same,rise of temperature for optimum activity versus wild-type,casein,21 °C
same,Topt (optimum temperature for activity),"casein; casein 0.8%, 30 minutes",95 °C
same,range of hydrolysis products (SDS-PAGE) versus the other enzymes,[2],much broader range of hydrolysis products
same,rate of hydrolysis and acid-soluble protein products versus the other enzyme preparations,"[2]; enzyme 0.05% v/v, pH 7.0, 90° C.",more rapidly and that more acid-soluble protein products are produced
same,degradation of B. licheniformis α-amylase,[3]; 80° C. and lower,No significant degradation
same,hydrolysis of B. licheniformis α-amylase,[3]; 100° C.,completely hydrolysed

# — patent publication US6518054B1, “Metallo-endopeptidases” (Rijksuniverstteit Te Groningen, priority 1997, dated 2003)
